{
  "source": "patent US20230167458A1",
  "about": "“FORSKOLIN-INDUCIBLE PROMOTERS AND HYPOXIA-INDUCIBLE PROMOTERS” (ASKLEPIOS BIOPHARMACEUTICAL, INC., priority 2020, published 2023)",
  "molecules": {"B1": {"name": "HYBT: synthetic hypoxia-inducible promoter, SEQ ID NO: 84/86; 4 HRE3 elements and YB-TATA minimal promoter (nucleic acid)", "DNA": "GATCTTTGTATTTAATTAAGACCTTGAGTACGTGCGTCTCTGCACGTATGGCGATTAAGACCTTGAGTACGTGCGTCTCTGCACGTATGGCGATTAAGACCTTGAGTACGTGCGTCTCTGCACGTATGGCGATTAAGACCTTGAGTACGTGCGTCTCTGCACGTATGGCGATTAATCCATATGCTCTAGAGGGTATATAATGGGGGCCACTAGTCTACTACCAGAAAGCTTGGTACCGAGCTCGGATCCAGCCACC", "modifications": "Synp-HYBT", "notes": "4 HRE3 elements and YB-TATA minimal promoter"}, "B2": {"name": "RTV-016: synthetic hypoxia-inducible promoter, SEQ ID NO: 82; 6 HRE2 elements spaced by 20 bp and CMV minimal promoter (nucleic acid)", "DNA": "CTGCACGTAGATGATGCGTAGCTAGTAGTCTGCACGTAGATGATGCGTAGCTAGTAGTCTGCACGTAGATGATGCGTAGCTAGTAGTCTGCACGTAGATGATGCGTAGCTAGTAGTCTGCACGTAGATGATGCGTAGCTAGTAGTCTGCACGTAGTAGTCGTATGCTGATGCGCAGTTAGCGTAGCTGAGGTACCGTCGACGATATCGGATCCAGGTCTATATAAGCAGAGCTCGTTTAGTGAACCGTCAGATCGCCTAGATACGCCATCCACGCTGTTTTGACCTCCATAGAAGATCGCCACC", "modifications": "Synp-RTV-016", "notes": "6 HRE2 elements spaced by 20 bp and CMV minimal promoter"}},
  "key": {"HEK293-T": {"system": "HEK293-T", "assay": "Luciferase expression in normoxia vs 24 h hypoxia, transiently transfected HEK293-T", "type": "cell-based, human", "protocol": "HEK293-T are seeded at a density of 20%. Once they reached a confluence between 60 and 80%, the media is changed with DMEM (#21885-025—Thermo Scientific) supplemented with 10% FBS (Gibco, 26140). After 3 hours, the cells were transfected by a transfection mix. The transfection mix is prepared by adding DNA ([…] per 6 well plate) and PEI 25 kDA (#23966-1—Polyscience) in a ratio of 1:3 in sterile DPBS (#14190169—ThermoFisher Scientific). After mixing, the transfection mix is incubated at room temperature for 30 minutes and then added directly to the cells. After 16 to 18 h post transfection, the media is changed to DMEM+2% FBS. The transfected DNA was one of the vectors where the promoter constructs (RTV-015, HYBT, RTV-016, HV3C) or a control promoter (CMV-IE) were used to drive luciferase expression and β-galactosidase containing pcDNA6 plasmid. The β-galactosidase containing plasmid was used as internal control for transfection efficiency (Thermofisher, V22020).\n(§1) After transfection the cells were incubated for 24 hrs in normoxic conditions (20% oxygen). Induction of the promoters was assessed by using luciferase activity after 24 hrs in normoxia or hypoxia (5% oxygen, 10% carbon dioxide and 85% nitrogen). Hypoxia was achieved by gas displacement in a sealed hypoxia chamber.\nLuciferase activity was measured using LARII (Dual Luciferase Reporter 1000 assay system, Promega, E1980).\nMedia was removed from the cells at the respective time point (0, 3, 5, 24 hrs after induction). The cells were washed once in 300 μl of DPBS. Cells were lysed by adding 100 μl of passive lysis buffer to the cells and incubation with rocking for 15 minutes. The cell debris was pelleted by centrifugation of the plate at max speed in a benchtop centrifuge for 1 min. 10 μl of supernatant was pipetted into white 96-well plate and luminescence measured by addition of 50 μl of LARII substrate.\nβ-galactosidase activity was measured as per manufacturer's instructions (Mammalian βGalactosidase Assay Kit, 75707/75710, Thermo Scientific) using 25 μl of lysate. 25 μl of lysate was transferred into a microplate well and mixed with 25 μl of β-galactosidase Assay Reagent, equilibrated to room temperature. The mixture was incubated at 37° C. for 30 min and absorbance measured at 405 nm.\nLuciferase readouts were normalised to β-galactosidase to produce normalised relative luminometer units (RLUs)."}, "CHO-GSK1SV": {"system": "CHO-GSK1SV", "assay": "Luciferase expression in normoxia vs 24 h hypoxia, transiently transfected CHO-GS suspension cells", "type": "cell-based, chinese hamster", "conditions": "transient CHO_GS", "protocol": "40 ml of cells were grown in a 250 ml vented Erlenmeyer flask (Sigma-Aldrich CLS431144) at 37° C., 20% O2, 8% CO2 with agitation at 100 rpm. Cells were seeded as at 300,000 cells/ml.\nOne day before transfection, the cells were counted using a haemocytometer and split to 500,000 cells/ml.\nOn the day of transfection, the cells are seeded to 1,000,000 cells/ml in 500 μl of appropriate medium (Thermofisher, CD-CHO 10743029) in a 24 well plate. […] of DNA per well was then added to 10 μl of OptiMem medium (Thermofisher; 11058021) and incubated for 5 minutes at room temperature.\nConcurrently, 0.625 μl of Freestyle Max reagent (Thermofisher, 16447100) was made up to 10 μl by addition of OptiMem and incubated for 5 minutes at room temperature. After this incubation, both mixes were added to the same tube and incubated at room temperature for 25-30 minutes. The DNA/Max reagent mix (20 μl/well) was then added directly to the cells and the cells incubated at 37 C, 8% CO2 with agitation at 100 rpm.\nThe transfected DNA was one of the vectors where the promoter constructs (RTV-015, HYBT, RTV-016, HV3C) or a control promoter (CMV-IE) were used to drive luciferase expression and β-galactosidase containing pcDNA6 plasmid. The β-galactosidase containing plasmid was used as internal control for transfection efficiency (Thermofisher, V22020).\nas §1, with “chamber. Luciferase activity was measured as described above.” for “chamber.”"}, "CHO-GSK1SV cell line": {"system": "CHO-GSK1SV cell line", "assay": "SEAP expression and cell number in normoxia vs 24 h hypoxia, stably transfected CHO-GS-KSV1", "type": "cell-based, chinese hamster", "conditions": "stably integrated CHO-GSK1SV", "protocol": "Cell suspensions of 6×10^5 cells per mL are incubated on an orbital shaker set at 8% CO2, 20% O2, 37° C., 85% relative humidity and 140 rpm overnight. 2.86×10^7 cells were centrifuged at 200 g for 3 minutes. Media is then aspirated and cell pellet resuspended in 2 mL fresh CD-CHO media to obtain a concentration of 1.43×10^7 cells per mL. 700 μL of cell suspension was added to each of two electroporation cuvettes each containing […] of linearised DNA in 100 μL of sterile TE buffer (Thermofisher, 12090015). Each cuvette was electroporated, delivering a single pulse of 300V, […] with resistance to infinity. Immediately after delivery of pulse electroplated cells were transferred to Erlenmeyer 125 mL flask containing 20 mL of CD-CHO media pre-warmed to 37° C. Electroporated cells from two cuvettes are combined into a single 125 mL flask to generate one pool of cells. Cells are cultured on an orbital shaker set at 8% CO2, 20% 02, 37° C., 85% relative humidity and 140 rpm. Cells are transferred to fresh CD-CHO media 24 hours after transfection and cell cultures monitored and given fresh CD-CHO media every 2-4 days. Usually after about 10-14 days cell numbers will be high enough to start passaging. Cells were selected at 14 days and then expanded. Induction was performed once doubling time had returned to approx. 24 hrs. The cells assayed in this example were at passage number 15, 17, 19 and 21.\nThe transfected DNA was pXC-17.4 expression vector (Lonza Biologics plc) where one of the promoter constructs (RTV-015, HYBT, RTV-016, HV3C) or a control promoter (CMV-IE) have been cloned upstream of the SEAP gene, which had been cloned into the multiple cloning site within the vector expression cassette. Promoters were closed into the pXC-17.4 vector using Gibson assembly. The pXC-17.4 expression vector is designed for making stable cell lines in the CHO-GSK1SV cell line as it contains the […] gene which has been knocked out of the cell line. Therefore, selection of cells in glutamine drop-out medium will select for cells that have stably integrated the plasmid.\nStably transfected CHO-GS cells were seeded at 500,000 cells/ml and allowed to grow for 24 hrs, at this point the cells were counted and placed under hypoxic conditions as previously described. After 24 hrs, the cell numbers and the expression of SEAP was measured.\nSEAP Reporter Gene Assay, chemiluminescent (Roche, CAT #11 779 842 001) was used to measured SEAP activity as per manufacturers protocol. All reagents and samples were fully pre-equilibrated at room temperature. Culture supernatant was collected from the stably transfected CHO-GS at the specific time points (0 h and 24 h). The supernatant was diluted 1:4 in dilution buffer and heat treated at 65° C. for 30 minutes. The heat-treated sample was then centrifuged for 30 s at maximum speed. 50 μl of the heat-treated sample was then added to 5 μl of inactivation buffer and incubated for 5 min at room temperature. 50 μl of substrate reagent was then added and incubated for 10 min at room temperature. The signal is then read at 477 nm and compared to a calibration curve. SEAP expression was normalized against cell number to ensure that the increase in activity was not due to increased cell numbers and was true induction. The result of this experiment can be seen in FIG. 16 and FIG. 17."}},
  "data": [
    {"molecule": "B1", "values": [
      {"measurement": "luciferase activity in normoxia", "setting": "HEK293-T", "value": "almost no luciferase activity"},
      {"measurement": "luciferase activity in normoxia", "setting": "CHO-GSK1SV", "value": "almost no luciferase activity"},
      {"measurement": "SEAP activity in normoxia", "setting": "CHO-GSK1SV cell line", "value": "almost no SEAP activity"},
      {"measurement": "inducibility after 24 hours in hypoxia (rank)", "setting": "CHO-GSK1SV cell line", "value": "highest"}
    ]},
    {"molecule": "B2", "values": [
      {"measurement": "luciferase activity in normoxia", "setting": "HEK293-T", "value": "almost no luciferase activity"},
      {"measurement": "luciferase activity in normoxia", "setting": "CHO-GSK1SV", "value": "almost no luciferase activity"},
      {"measurement": "SEAP activity in normoxia", "setting": "CHO-GSK1SV cell line", "value": "almost no SEAP activity"}
    ]}
  ]
}
